Test results published in US20250263490A1 (VIB VZW, published 2025).

Key:
[1] = molecular target: T1, recombinant human domain 1-3His6 of the cation-independent mannose-6-phosphate receptor (human, UniProt P11717 41-467); assay: BLI exp 1, dissoc pH 5
T1 construct: Biotinylated (NHS-PEG4-biotin) for BLI; Glycosylated; also called hDom1-3His6; hCI-M6PRD1-D3
Protocol: (§1) For each of the 11 anti-CI-M6PR VHHs, a biolayer interferometry (BLI) experiment was performed in which the hDom₁₋₃His₆ was biotinylated and coupled to streptavidin biosensor tips. Afterwards, the tips were incubated with serially diluted VHHs during the association phase and dissociation was performed at pH 7.4. Similarly, dissociation was performed at pH 7.0, pH 6.0 and pH 5.0 as well after regeneration of the biosensor tips. […] The anti-CI-M6PR antibody (clone 2G11) and GBP were used as positive and negative controls, respectively.
(§2) Analysis of the binding kinetics was performed using an Octet Red96 (FortéBio) device with Streptavidin SA Biosensor tips (VWR 733-2145). Therefore, 1 mL of human domain₁₋₃His₆ (0.5 mg/mL in 50 mM MES, 150 mM NaCl, pH 6.5) was incubated at room temperature for 30 minutes with EZ-Link™ NHS-PEG4-Biotin (1 mg) (Thermo Fischer A39259) and NaHCO₃ (100 mM). Biotinylated human domain₁₋₃His₆ was purified using a Zeba spin desalting Column™ (7K MWCO, 2 mL, Thermo Fischer 89890) and 1 μg/mL was used for immobilization on the Streptavidin SA Biosensor tips. The loaded tips were dipped into a particular anti-CI-M6PR VHH solution, serially diluted in kinetics buffer (0.2M NaH₂PO₄, 0.1M Na⁺ citrate, 0.01% BSA, 0.002% Tween20, pH 7.4). This was followed by dissociation of the particular anti-CI-M6PR VHH in kinetics buffer of pH 7.4, followed by regeneration in Glycine (10 mM, pH 3) and neutralisation. Same cycle was repeated but the dissociation was performed at pH 7.0, 6.0, 5.0, 4.5 and 4.0. A reference well and reference sensors were subtracted from ligand sensors afterwards and Savitsky-Golay filtering was applied on the data. Fitting of the data was performed using a 1:1 model, grouped per pH of dissociation.

[2] = molecular target: T1, recombinant human domain 1-3His6 of the …; assay: BLI exp 1, dissoc pH 6
Protocol: as §1, §2

[3] = molecular target: T1, recombinant human domain 1-3His6 of the …; assay: BLI exp 2, dissoc pH 6
Protocol: as §1
Analysis of the binding kinetics was performed using an Octet Red96 (FortéBio) device with Streptavidin SA Biosensor tips (VWR, 733-2145). To this end, 1 mL of hCI-M6PR_D1-D3 (0.5 mg/mL in 50 mM MES, 150 mM NaCl, pH 6.5) was incubated at room temperature for 30 minutes with a two-fold molar excesses of EZ-Link™ NHS-PEG₄-Biotin (Thermo Fischer, A39259) and NaHCO₃ (100 mM, pH 8.3). Biotinylated hCIMPR_D1-D3 was purified using a Zeba spin desalting column (Thermo Fischer, 89890) and protein concentration was calculated by measuring the absorbance at 280 nm (extinction coefficient 50320 M¹ cm⁻¹). Two-fold biotin-labelled antigen was loaded on the tips (2.5 μg/mL) and subsequently dipped into a particular anti-CI-M6PR VHH-containing solution (ranging from 0-100 nM). Serial VHH dilutions were made in kinetics buffer (0.2 M Na₂HPO₄, 0.1 M Na⁺ citrate, 0.01% BSA, 0.002% Tween20, pH 7.4). After association (100 sec), dissociation was conducted (500 sec) for each anti-CI-M6PR VHH in the kinetics buffer, followed by biosensor regeneration in glycine (10 mM, pH 3) and neutralisation. The same cycle was repeated with dissociation performed in kinetics buffer of pH 7.0, 6.5, 6.0, 5.5, and 5.0.
A reference well and reference sensors were subtracted from ligand sensors afterwards and Savitsky-Golay filtering was applied on the data. Fitting of the data was performed using a 1:1 model, grouped per dissociation pH.

[4] = molecular target: T1, recombinant human domain 1-3His6 of the …; assay: BLI exp 2, dissoc pH 7
[5] = molecular target: T1, recombinant human domain 1-3His6 of the …; assay: BLI exp 1, dissoc pH 7.4
Protocol: as §1, §2

[6] = molecular target: T1, recombinant human domain 1-3His6 of the …; assay: BLI exp 2, dissoc pH 7.4
Protocol: as §1, §2

[7] = molecular target: T1, recombinant human domain 1-3His6 of the …; assay: BLI at pH 7.4, 1st of 2 repeats
Protocol: as §1, §2

[8] = molecular target: T2, recombinant mouse domain 1-3His6 of CI-M6PR (mouse, UniProt Q07113 36-418); assay: ELISA: coated mouse CI-M6PR Domain 1-3His6, serially diluted VHH, anti-VHH-HRP, TMB, Abs 450 nm; sigmoidal regression [table at the right]
T2 construct: Genbank NM_010515.2); Range includes the signal peptide; also called mDom1-3His6; mCI-M6PRD1-D3
T2 sequence (Q07113 other isoform, or with tags, fused parts or gaps): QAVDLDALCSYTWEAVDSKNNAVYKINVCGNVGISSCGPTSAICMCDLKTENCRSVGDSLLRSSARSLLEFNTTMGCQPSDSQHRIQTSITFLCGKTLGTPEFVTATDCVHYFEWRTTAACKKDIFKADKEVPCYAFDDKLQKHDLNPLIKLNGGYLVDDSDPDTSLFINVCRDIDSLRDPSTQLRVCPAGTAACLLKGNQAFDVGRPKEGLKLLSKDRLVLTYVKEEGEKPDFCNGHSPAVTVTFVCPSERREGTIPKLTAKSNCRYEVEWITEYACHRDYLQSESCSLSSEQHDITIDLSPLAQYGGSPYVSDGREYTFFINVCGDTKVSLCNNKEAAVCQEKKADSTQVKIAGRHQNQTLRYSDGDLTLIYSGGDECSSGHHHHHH
Protocol: FIGS. 5A-5B. Affinity of anti-CI-M6PR VHHs for recombinant mouse CI-M6PR Domain 1-3His₆ determined by ELISA. (FIG. 5A) Measurement for each of the 11 anti-CI-M6PR VHHs in serial dilution binding to the coated mouse antigen. Detection was performed using an anti-VHH antibody coupled to HRP, and measured as the absorbance of the TMB substrate at 450 nm, correlating to the amount of bound VHH as plotted at the Y-axis. The Log₁₀ concentrations of the serially diluted VHHs were plotted at the X-axis.
To evaluate the cross-reactivity of the anti-CI-M6PR nanobodies between the human and mouse CI-M6PR domain 1-3His₆ antigen, ELISA was performed with the eleven serially diluted anti-CI-M6PR nanobodies. […] By performing sigmoidal regression on the derived absorbance curves, half-maximal effective concentration (EC₅₀) values of each VHH were acquired, representing the required concentration to occupy 50% of the coated antigen. As a negative control, GBP was included in the assay.

| Binder | koff [1] | kon [1] | koff [2] | kon [2] | koff [3] | kon [3] | koff [4] | kon [4] | Kd [5] | koff [5] | kon [5] | Kd [6] | koff [6] | kon [6] | Kd [7] | koff [7] | kon [7] | EC50 [8] | Kd [1] | Kd [2] |
| --- | --- | --- | --- | --- | --- | --- | --- | --- | --- | --- | --- | --- | --- | --- | --- | --- | --- | --- | --- | --- |
| anti-CI-M6PR VHH10 (VHH, His6-tagged; made in Pichia pastoris) VHH: QVQLQESGGGSVQAGGSLRLSCAPAGRTFSRIRMGWFRQAPGKEREFVAAISSGGLSYYADSMKGRFTISRDNAKNTVLLQMNSLEPDDTAVYYCAAVLNDYIDDYVARNPTLYDYWGQGTQVTVSS | 0.0106 s⁻¹ | 91100 M⁻¹ s⁻¹ | 0.00205 s⁻¹ | 39100 M⁻¹ s⁻¹ | 0.00205 s⁻¹ | 39100 M⁻¹ s⁻¹ | 0.00148 s⁻¹ | 99300 M⁻¹ s⁻¹ | 46.3 nM | 0.00177 s⁻¹ | 38100 M⁻¹ s⁻¹ | 46.5 nM | 0.00177 s⁻¹ | 38100 M⁻¹ s⁻¹ | 46.3 nM | 0.00177 s⁻¹ | 38100 M⁻¹ s⁻¹ | 1620 nM |  |  |
| anti-CI-M6PR VHH11 (VHH, His6-tagged; made in Pichia pastoris) VHH: QVQLQESGGGLVQAGDSLKLSCTASGPTFSEITGGWFRQVPGKEREFVASISSTGITTYYTDSVKGRFTVSRDNAKNTMYLQMNSLKPEDTGVYYCAARSTSRSIAITVGYDYWGQGTQVTVSS | 0.0253 s⁻¹ | 225000 M⁻¹ s⁻¹ | 0.00665 s⁻¹ | 195000 M⁻¹ s⁻¹ | 0.00665 s⁻¹ | 195000 M⁻¹ s⁻¹ | 0.00394 s⁻¹ | 194000 M⁻¹ s⁻¹ | 41.4 nM | 0.00317 s⁻¹ | 76700 M⁻¹ s⁻¹ | 51 nM | 0.00391 s⁻¹ | 76700 M⁻¹ s⁻¹ | 41.4 nM | 0.00317 s⁻¹ | 76700 M⁻¹ s⁻¹ | 330 nM | 113 nM | 34.2 nM |
